The values below come from patent publication CN106046162A (DONG ZHUMING BIOTECH CO LTD, dated 2016).

Assay [1] deals with T1, 人PD-1-Fc重组蛋白(RD) (human, UniProt Q15116 21-167, limits assumed).
T1 construct: Bought recombinant protein (RD); also called hPD-1-Fc; hPD-1; not shown: Fc part of the bought fusion protein
In words: Biacore blocking assay, hPD-1-Fc on the chip, 2-fold dilutions of the antibody in 7 steps; blocks PD-1 binding to B7-H1. (Surface plasmon resonance follows binding to a sensor surface in real time, without labels.)

In assay [2] the target is T1, 人PD-1-Fc重组蛋白(RD). The assay is described as follows: ELISA, 3-fold dilutions of the antibody in 12 steps, goat anti-mouse IgG-Fc-HRP; the text prints the coat as hPD-L1-Fc but reports affinity for PD-1. In general terms: An ELISA detects its analyte on a solid surface through an enzyme-linked reagent.

T1 sequence (Q15116 21-167 limits assumed): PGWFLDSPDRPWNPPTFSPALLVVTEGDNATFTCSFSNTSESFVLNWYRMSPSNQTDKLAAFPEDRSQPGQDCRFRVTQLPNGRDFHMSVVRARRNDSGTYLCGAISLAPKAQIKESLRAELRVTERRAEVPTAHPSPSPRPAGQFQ

B1: 抗人PD-1单克隆抗体2-189-H-1 (antibody, V domains shown)
VH: QVQLKESGPGLVAPSQSLSITCTVSGFSLTTYGVSWVRQPPGKGLEWLGVIWGDGSTDYHSVLISRLSITKDISKSQVFLKLNSLQSDDTATYYCAQQGSRGDYWGQGTTLTVSS
VL: DVLLTQTPLSLPVSLGDQASISCRSSQTIVHSNGITYLEWYLQKPGQSPKALISKVSNRLSGVPDRFSGSGSGTDFTLKISRVEAEDLGVYYCFQGSHIPYTFGGGTKLEIK
notes: Mouse hybridoma antibody (CCTCC C2015160), purified on Protein A; also called 本抗体; hPD-1抗体
The EC50 is the concentration needed to bring the measured effect to its halfway point. Low values mean an effect from little substance, high ones a need for much substance. Turning to B1, the figures for the EC50 with 人PD-1-Fc重组蛋白(RD) [1] and with 人PD-1-Fc重组蛋白(RD) [2] were 64.4 nM and 1.07 nM, respectively.
